Data published in patent publication US11833164B2, “Methods of treating Fabry disease in patients having a mutation in the GLA gene” (Amicus Therapeutics, Inc., priority 2019, dated 2023).

System: mutant form of α-Gal A expressed in HEK-293 cells
Assay: HEK assay (GLP HEK / Migalastat Amenability Assay): α-Gal A activity in lysates of transiently transfected HEK-293 cells incubated with or without 10 μM migalastat
Assay type: cell-based, human
Conditions: for Absolute increase (% WT): 10 μM migalastat versus baseline; for Relative increase: 10 μM migalastat α-Gal A activity relative to baseline; for 10 μM migalastat α-Gal A activity (% WT): 5 days; for 10 μM migalastat α-Gal A activity (% WT) / Baseline α-Gal A activity (% WT): percentage of baseline wild-type α-Gal A activity; for 10 μM migalastat α-Gal A activity (% WT) / Baseline α-Gal A activity (% WT) / Baseline α-Gal A activity / 10 μM migalastat α-Gal A activity: mean ± SEM; for Baseline α-Gal A activity (% WT): absence of migalastat; for Baseline α-Gal A activity / 10 μM migalastat α-Gal A activity: lysates of HEK-293 cells transfected with the mutant form; for Baseline α-Gal A activity: incubated 5 days in the absence of migalastat; for 10 μM migalastat α-Gal A activity: incubated 5 days with 10 μM migalastat
Procedure: Such mutations or variants are also referred to herein as “HEK assay amenable” mutations or variants.
The α-Gal A activity is expressed as the nmoles of free 4-MU released per milligram of protein per hour (nmol/mg/hr).
In Table 7, values for the mean±standard error of the mean (SEM) were calculated. nmol/mg/hr indicates “nmoles of free 4-MU released per mg of protein per hour”. WT indicates “wild-type”. NC indicates “not calculable”. N/A indicates “not applicable”.

| Molecule | Absolute increase (% WT) | Relative increase | 10 μM migalastat α-Gal A activity (% WT) | Baseline α-Gal A activity (% WT) | Baseline α-Gal A activity [nmol/mg/h] | 10 μM migalastat α-Gal A activity [nmol/mg/h] |
| --- | --- | --- | --- | --- | --- | --- |
| I117T (protein) MQLRNPELHLGCALALRFLALVSWDIPGARALDNGLARTPTMGWLHWERFMCNLDCQEEPDSCISEKLFMEMAELMVSEGWKDAGYEYLCIDDCWMAPQRDSEGRLQADPQRFPHGTRQLANYVHSKGLKLGIYADVGNKTCAGFPGSFGYYDIDAQTFADWGVDLLKFDGCYCDSLENLADGYKHMSLALNRTGRSIVYSCEWPLYMWPFQKPNYTEIRQYCNHWRNFADIDDSWKSIKSILDWTSFNQERIVDVAGPGGWNDPDMLVIGNFGLSWNQQVTQMALWAIMAAPLFMSNDLRHISPQAKALLQDKDVIAINQDPLGKQGYQLRQGDNFEVWERPLSGLAWAVAMINRQEIGGPRSYTIAVASLGKGVACNPACFITQLLPVKRKLGFYEWTSRLRSHINPTGTVLLQLENTMQMSLKDLL | 4.7 | 2.1 | 9 ± 0.9 | 4.3 ± 0.2 | 1607 ± 54 | 3303 ± 308 |
| Y123D (protein) MQLRNPELHLGCALALRFLALVSWDIPGARALDNGLARTPTMGWLHWERFMCNLDCQEEPDSCISEKLFMEMAELMVSEGWKDAGYEYLCIDDCWMAPQRDSEGRLQADPQRFPHGIRQLANDVHSKGLKLGIYADVGNKTCAGFPGSFGYYDIDAQTFADWGVDLLKFDGCYCDSLENLADGYKHMSLALNRTGRSIVYSCEWPLYMWPFQKPNYTEIRQYCNHWRNFADIDDSWKSIKSILDWTSFNQERIVDVAGPGGWNDPDMLVIGNFGLSWNQQVTQMALWAIMAAPLFMSNDLRHISPQAKALLQDKDVIAINQDPLGKQGYQLRQGDNFEVWERPLSGLAWAVAMINRQEIGGPRSYTIAVASLGKGVACNPACFITQLLPVKRKLGFYEWTSRLRSHINPTGTVLLQLENTMQMSLKDLL | 10.2 | 1.2 | 53.6 ± 2.7 | 43.4 ± 1.6 | 15093 ± 815 | 18723 ± 1237 |
| A121V (protein) MQLRNPELHLGCALALRFLALVSWDIPGARALDNGLARTPTMGWLHWERFMCNLDCQEEPDSCISEKLFMEMAELMVSEGWKDAGYEYLCIDDCWMAPQRDSEGRLQADPQRFPHGIRQLVNYVHSKGLKLGIYADVGNKTCAGFPGSFGYYDIDAQTFADWGVDLLKFDGCYCDSLENLADGYKHMSLALNRTGRSIVYSCEWPLYMWPFQKPNYTEIRQYCNHWRNFADIDDSWKSIKSILDWTSFNQERIVDVAGPGGWNDPDMLVIGNFGLSWNQQVTQMALWAIMAAPLFMSNDLRHISPQAKALLQDKDVIAINQDPLGKQGYQLRQGDNFEVWERPLSGLAWAVAMINRQEIGGPRSYTIAVASLGKGVACNPACFITQLLPVKRKLGFYEWTSRLRSHINPTGTVLLQLENTMQMSLKDLL | 56.7 | 3.7 | 78.2 ± 4.2 | 21.5 ± 1.2 | 7301 ± 253 | 26639 ± 1124 |
| H125D (protein) MQLRNPELHLGCALALRFLALVSWDIPGARALDNGLARTPTMGWLHWERFMCNLDCQEEPDSCISEKLFMEMAELMVSEGWKDAGYEYLCIDDCWMAPQRDSEGRLQADPQRFPHGIRQLANYVDSKGLKLGIYADVGNKTCAGFPGSFGYYDIDAQTFADWGVDLLKFDGCYCDSLENLADGYKHMSLALNRTGRSIVYSCEWPLYMWPFQKPNYTEIRQYCNHWRNFADIDDSWKSIKSILDWTSFNQERIVDVAGPGGWNDPDMLVIGNFGLSWNQQVTQMALWAIMAAPLFMSNDLRHISPQAKALLQDKDVIAINQDPLGKQGYQLRQGDNFEVWERPLSGLAWAVAMINRQEIGGPRSYTIAVASLGKGVACNPACFITQLLPVKRKLGFYEWTSRLRSHINPTGTVLLQLENTMQMSLKDLL | 6.5 | 3.3 | 8.8 ± 1.4 | 2.3 ± 0.2 | 995 ± 106 | 3282 ± 375 |
| Y123S (protein) MQLRNPELHLGCALALRFLALVSWDIPGARALDNGLARTPTMGWLHWERFMCNLDCQEEPDSCISEKLFMEMAELMVSEGWKDAGYEYLCIDDCWMAPQRDSEGRLQADPQRFPHGIRQLANSVHSKGLKLGIYADVGNKTCAGFPGSFGYYDIDAQTFADWGVDLLKFDGCYCDSLENLADGYKHMSLALNRTGRSIVYSCEWPLYMWPFQKPNYTEIRQYCNHWRNFADIDDSWKSIKSILDWTSFNQERIVDVAGPGGWNDPDMLVIGNFGLSWNQQVTQMALWAIMAAPLFMSNDLRHISPQAKALLQDKDVIAINQDPLGKQGYQLRQGDNFEVWERPLSGLAWAVAMINRQEIGGPRSYTIAVASLGKGVACNPACFITQLLPVKRKLGFYEWTSRLRSHINPTGTVLLQLENTMQMSLKDLL | 19.3 | 1.5 | 61 ± 3.6 | 41.7 ± 2.1 | 14556 ± 986 | 21255 ± 1484 |
| Y123N (protein) MQLRNPELHLGCALALRFLALVSWDIPGARALDNGLARTPTMGWLHWERFMCNLDCQEEPDSCISEKLFMEMAELMVSEGWKDAGYEYLCIDDCWMAPQRDSEGRLQADPQRFPHGIRQLANNVHSKGLKLGIYADVGNKTCAGFPGSFGYYDIDAQTFADWGVDLLKFDGCYCDSLENLADGYKHMSLALNRTGRSIVYSCEWPLYMWPFQKPNYTEIRQYCNHWRNFADIDDSWKSIKSILDWTSFNQERIVDVAGPGGWNDPDMLVIGNFGLSWNQQVTQMALWAIMAAPLFMSNDLRHISPQAKALLQDKDVIAINQDPLGKQGYQLRQGDNFEVWERPLSGLAWAVAMINRQEIGGPRSYTIAVASLGKGVACNPACFITQLLPVKRKLGFYEWTSRLRSHINPTGTVLLQLENTMQMSLKDLL | 19.7 | 1.5 | 60.6 ± 4.1 | 40.9 ± 3.2 | 13817 ± 816 | 20466 ± 846 |
| V124I (protein) MQLRNPELHLGCALALRFLALVSWDIPGARALDNGLARTPTMGWLHWERFMCNLDCQEEPDSCISEKLFMEMAELMVSEGWKDAGYEYLCIDDCWMAPQRDSEGRLQADPQRFPHGIRQLANYIHSKGLKLGIYADVGNKTCAGFPGSFGYYDIDAQTFADWGVDLLKFDGCYCDSLENLADGYKHMSLALNRTGRSIVYSCEWPLYMWPFQKPNYTEIRQYCNHWRNFADIDDSWKSIKSILDWTSFNQERIVDVAGPGGWNDPDMLVIGNFGLSWNQQVTQMALWAIMAAPLFMSNDLRHISPQAKALLQDKDVIAINQDPLGKQGYQLRQGDNFEVWERPLSGLAWAVAMINRQEIGGPRSYTIAVASLGKGVACNPACFITQLLPVKRKLGFYEWTSRLRSHINPTGTVLLQLENTMQMSLKDLL | 30.6 | 1.4 | 111.3 ± 4.5 | 80.7 ± 2 | 32074 ± 1858 | 43288 ± 2179 |
| Y123F (protein) MQLRNPELHLGCALALRFLALVSWDIPGARALDNGLARTPTMGWLHWERFMCNLDCQEEPDSCISEKLFMEMAELMVSEGWKDAGYEYLCIDDCWMAPQRDSEGRLQADPQRFPHGIRQLANFVHSKGLKLGIYADVGNKTCAGFPGSFGYYDIDAQTFADWGVDLLKFDGCYCDSLENLADGYKHMSLALNRTGRSIVYSCEWPLYMWPFQKPNYTEIRQYCNHWRNFADIDDSWKSIKSILDWTSFNQERIVDVAGPGGWNDPDMLVIGNFGLSWNQQVTQMALWAIMAAPLFMSNDLRHISPQAKALLQDKDVIAINQDPLGKQGYQLRQGDNFEVWERPLSGLAWAVAMINRQEIGGPRSYTIAVASLGKGVACNPACFITQLLPVKRKLGFYEWTSRLRSHINPTGTVLLQLENTMQMSLKDLL | 33.8 | 1.5 | 97.4 ± 3.4 | 63.6 ± 3.3 | 22066 ± 1408 | 33544 ± 1384 |
